Test results reported in patent US20230295310A1 (ABCELLERA BIOLOGICS, published 2023).
Changes are numbered by the printed parent chain.

B1: mAb 137 (antibody, V domains shown)
VH: QVQLVESGGGVVQPGRSLRLSCAASGFTFSTYGMHWVRQAPGKGLEWVAVIWYDGSHKYYADSVKGRFTISRDNSKKTLYLQMNSLRAEDTGIYYCARTGISGNMSYFYFDHWGQGILVTVSS
VL: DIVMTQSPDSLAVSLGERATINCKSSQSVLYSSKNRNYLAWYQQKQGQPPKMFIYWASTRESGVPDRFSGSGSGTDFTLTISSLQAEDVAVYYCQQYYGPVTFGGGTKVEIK
notes: VH and VL only
B2: mAb 141 (antibody, V domains shown)
VH: QVQLVQSGAEVKKPGASVKVSCKASGYTFTSYYIHWVRQAPGQGLDWMGIINPSGGITGYAQKLQGRVTMTRDTSTTTVYMELSSLRSDDTAVYYCARGVRGNYYYYYMDVWGKGTTVTVSS
VL: EIVLTQSPDFQSVTPKEKVTITCRASQSIGSKLHWYQQKPDQSPKLLIKYASQSFSGVPSRFSGSGSGTDFNLTINSLEAEDAATFYCHQSSGLPYTFGQGTKLEIK
notes: VH and VL only
B3: mAb 145 (antibody, V domains shown)
VH: B2 VH with S31N, L64F
VL: B2 VL with Y50F, A80P
notes: VH and VL only
B4: mAb 46 (antibody, V domains shown)
VH: EGQLVESGGGLVQPGGSLRLSCVASGFTLSSYTLNWVRQAPGKGLEWVSYISSTSRTIYYSDSVKGRFTISRDNAKNSLYLQMNSLRDEDTALYYCAREDYYDSSGFDYWGQGTLVTVSS
VL: AIRMTQSPSSFSASTGDRVTITCRASQGISSYLAWYQQKPGKAPKLLIYTASTLQSGVPSRFSGSGSGTDFTLTIRSLQSEDFATYYCQQYYSYPRTFGQGTKVEIK
notes: VH and VL only
B5: mAb 51 (antibody, V domains shown)
VH: B4 VH with G2V, V23A, L34M, T54S, T69S, Y109N
VL: B4 VL
notes: VH and VL only
B6: mAb 130 (antibody, V domains shown)
VH: EVQLVESGGGLVKTGGSLRLSCVASGFSFKKAWMNWVRQAPGKGLEWVGRIKRNSDGGATDYAAPVKDRFTLSRDDSKNTLYLQMNSLKTEDTAVYYCTTLDSSSWYVGYYYMDVWGKGTTVTVSS
VL: DIHMTQSPSSVSASLGDRVTFTCRASQDINNWLAWYQQRPGKAPKLLIYTASSLQSGVPSRFSGSGSGTDFTLTISSLQPEDFATYYCQQAHSLPITFGQGTRLGIK
notes: VH and VL only
B7: mAb 120 (antibody, V domains shown)
VH: B6 VH with S55T, A59T, T60A, D68G, N79K, Y82F, W106Y
VL: B6 VL with H3Q, L15V, F21I, R39K, S76G, G105E
notes: VH and VL only
B8: mAb 166 (antibody, V domains shown)
VH: B6 VH with K43R, S55T, A59T, D68G, T80M, W106L
VL: B6 VL with H3Q, L15V, F21I, R39K, Y87F, G105E, K107T
notes: VH and VL only
B9: mAb 125 (antibody, V domains shown)
VH: B6 VH with S55T, A59T, T60A, D68G, N79K, W106R
VL: B6 VL with H3Q, L15V, T20I, F21I, R39K, A43V, S76G, S77T, G105D
notes: VH and VL only
B10: mAb 113 (antibody, V domains shown)
VH: B6 VH with S55T, A59T, D68G
VL: B6 VL with H3Q, L15V, F21I, R39K, L46I, G105E
notes: VH and VL only
B11: mAb 122 (antibody, V domains shown)
VH: B6 VH with S55T, A59T, T60A, D68G, N79K, W106R
VL: B6 VL with H3Q, L15V, T20I, F21I, R39K, A43V, S76G, G105E
notes: VH and VL only
B12: mAb 133 (antibody, V domains shown)
VH: B6 VH with N35S, S55T, A59T, T60A, D68G, N79K, Y82F, T93S, T99V, W106Y
VL: B6 VL with H3Q, L15V, T20S, F21I, R39K, S76G, G105E
notes: VH and VL only
B13: mAb 115 (antibody, V domains shown)
VH: B6 VH with L18H, A59T, D68G, T71I
VL: B6 VL with H3Q, L15V, F21I, R39K, L46I, S53N, Y87F, S93G, G105E
notes: VH and VL only
B14: mAb 131 (antibody, V domains shown)
VH: B6 VH with L20I, S55T, A59T, T60I, D68G, T71S, Y82F, Y97F, W106Y
VL: B6 VL with L15V, F21I, R39K, Y87F
notes: VH and VL only
B15: mAb 169 (antibody, V domains shown)
VH: B6 VH with S55T, A59T, T60A, D68G, N79K, Y82F, W106Y
VL: B6 VL with H3Q, L15V, T20I, F21I, R39K, T72I, S76G, G105E
notes: VH and VL only
B16: mAb 165 (antibody, V domains shown)
VH: B6 VH with S55T, A59T, T60A, D68G, N79R, W106R
VL: B6 VL with H3Q, L15V, T20I, F21I, R39K, A43V, S76G, G105E
notes: VH and VL only
B17: mAb 112 (antibody, V domains shown)
VH: B6 VH with L18H, A59T, D68G, T71I
VL: B6 VL with H3Q, L15V, F21I, R39K, L46I, S53N, Y87F, G105E
notes: VH and VL only
B18: mAb 164 (antibody, V domains shown)
VH: B6 VH with S55T, A59T, T60A, D68G, N79K, Y82F, W106Y
VL: B6 VL with H3Q, L15V, F21I, N30K, R39K, S76G, G105E
notes: VH and VL only
B19: mAb 114 (antibody, V domains shown)
VH: B6 VH with S55T, A59P, T60A, D68G, N79K
VL: B6 VL with H3Q, L15V, T20I, F21I, Q37L, T50A, S76G, G105E, K107Q
notes: VH and VL only
B20: mAb 157 (antibody, V domains shown)
VH: B6 VH with N54T, S55A, D68G
VL: B6 VL with S7A, L15V, R39K
notes: VH and VL only
B21: mAb 117 (antibody, V domains shown)
VH: B6 VH with S55T, A59T, D68G, W106L
VL: B6 VL with H3Q, L15V, F21I, R39K, G105E
notes: VH and VL only
B22: mAb 116 (antibody, V domains shown)
VH: B6 VH with A59T, D68G
VL: B6 VL with H3Q, S9F, L15V, F21I, R39K, L46I, G105E
notes: VH and VL only
B23: mAb 156 (antibody, V domains shown)
VH: B6 VH with S55T, A59T, T60A, D68G, N79K, Y82F, W106Y
VL: B6 VL with H3Q, L15V, T20I, F21I, R39K, P40A, S76G, G105E
notes: VH and VL only
B24: mAb 163 (antibody, V domains shown)
VH: B6 VH with A40V, S55T, A59T, T60A, D68G, N79K, Y82F, W106Y
VL: B6 VL with H3Q, L15V, T20I, F21I, R39K, S76G, G105E
notes: VH and VL only
B25: mAb 155 (antibody, V domains shown)
VH: B6 VH with S55T, A59T, T60A, D68G, N79K, Y82F, W106Y
VL: B6 VL with H3Q, L15V, T20I, F21I, R39K, S76G, T97S, G105D
notes: VH and VL only
B26: mAb 55 (antibody, V domains shown)
VH: QVQLEQSGAEVKKPGASVKVSCKTSGYIFANYDINWVRQATGQGLEWMGWMNPKSGKAGYAQKFQGRVTMTSNTPINTAYMELSSLRSEDTAVYYCAREGHYDFWRGFYSFDYWGQGILVTVSS
VL: DIQMTQSPSSLSASVGDRVTITCRASQGIRNDLGWYQQKPGKAPKRLIYTASSLQSGVPSRFSGSGSGTEFTLTISSLQPEDFATYFCLQYNTYPYTFGQGTKLEIK
notes: VH and VL only
B27: mAb 74 (antibody, V domains shown)
VH: EVQLVESGGGLVQPGRSLRLSCAASGFTFADYVMHWVRQAPGKGLEWVSGINWNNARIGYVGSVKGRFTISRDNAKNSLYLQMTSLRVEDTALYHCVREGNFDFWSAYYRGFLDLWGRGTLVTVSS
VL: B26 VL with N31S, T50G, S56G, F87Y, Y91H, T93S
notes: VH and VL only
B28: mAb 67 (antibody, V domains shown)
VH: EVQLVESGGDLVQPGRSLRLSCAASGFTFDDCVIHWVRQAPGKGLEWVSGITWNSGRIGYADSVKGRFTISRDNAKNSLYLQMNSLRVEDTALYYCAKEGNYDFWSTYYRGYFDLWGRGTLVTVSS
VL: B26 VL with K42I, T50A, S56G, S60L, F87Y, Y91H, T93S
notes: VH and VL only
B29: mAb 71 (antibody, V domains shown)
VH: QVQLVQSGAEVRKPGASVKVSCKASGYTFTKYDVNWVRQAPGQGLEWMGWMNSNNGNIGYAQKFQGRVTMTRKTSISTAYMELSSLRSEDTAVYYCAREGHYDFWRGFYNFDYWGQGTLVTVSS
VL: B26 VL with G28D, R30K, T50A, F87Y, Y91H, T93F, Y96I, K103R
notes: VH and VL only
B30: mAb 73 (antibody, V domains shown)
VH: EVELVESGGGLVQPGRSLRLSCAASGFTFDDKVMHWVRQAPGKGLEWVSCINWNSGHIGYADSVKGRFTISRDNARTSLYLQMNSLRPEDTALYYCVREGNYDFWSGYYRGFFDLWGRGTLVTVSS
VL: B26 VL with T50A, S56G, F87Y, Y91H, N92T, T93S, Y96F
notes: VH and VL only
B31: mAb 320 (antibody, V domains shown)
VH: QVQLVESGGGVVQPGRSLRLSCAASGFTFRSYGMHWVRQAPGKGLEWVAIIWYDGSKKYYADSVKGRFTISRDNSKNILYLQMNSLRAEDTAVYYCARQEFNWNDGGYYYMDVWGKGTTVTVSS
VL: DIQLTQSPSFLSASVGDRVTITCRASQGISSYLDWCQQKPGKAPKLLIYAASTLQSGVPSRFSGSGSGTEFTLTISSLQPEDFATYYCQQLDNYPPTFGGGTKVEIK
notes: VH and VL only

These binders were tested against T1, human CD3e/d (human, UniProt P07766 23-126; P04234 22-105) (assay: SPR (Carterra LSA), mAb on chip).
T1 construct: Bought soluble protein; also called hCD3e/d; human CD3/ed (Sino CT038-H2508H)
T1 sequence (P07766 23-126, chain 1 of 2): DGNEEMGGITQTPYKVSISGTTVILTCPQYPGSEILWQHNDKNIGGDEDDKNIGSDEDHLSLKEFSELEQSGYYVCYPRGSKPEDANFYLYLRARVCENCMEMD
T1 sequence (P04234 22-105, chain 2 of 2): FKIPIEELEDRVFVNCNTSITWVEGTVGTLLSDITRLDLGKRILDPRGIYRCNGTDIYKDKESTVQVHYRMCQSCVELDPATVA
Procedure: (§1) High-throughput surface plasmon resonance (SPR) coupled kinetic experiments were performed on a Carterra LSA® instrument equipped with an HC-30M chip type (Carterra, USA). The instrument uses two microfluidic modules, a single-flow cell (SFC) and a 96 printhead, to deliver samples to the chip surface via back-and-forth cycling of a fixed sample volume. An up to 384-ligand array is generated by docking the MFC onto each of the four nested print block locations in a serial manner.
(§2) The purified mAbs were immobilized on a Carterra LSA® HC-30M chip by direct coupling. The chip surface was first activated by flowing a freshly prepared 1:1:1 activation mix of 100 mM MES pH 5.5, 100 mM S-NHS, 400 mM EDC for 7 min. mAbs diluted to 10 μg/mL in 10 mM NaOAc pH 4.25+0.01% TWEEN®20 were then injected and printed onto the chip surface simultaneously using the MFC printhead for 10 min. Finally, the chip surface was quenched by flowing 1 M ethanolamine for 7 min (to block the excess reactive esters), followed by 2 wash steps of 15 s each in 25 mM MES pH 5.5. In addition to expressed and purified mAbs, relevant benchmarks and negative control mAbs were also printed on the chip surface.
(§3) The data were analyzed using the Carterra Kinetics analysis software. Briefly, the data were referenced with the interstitial reference spots and double-referenced to a buffer cycle, and then fit globally to a 1:1 Langmuir binding model to determine their apparent association (ka) and dissociation (kd) kinetic rate constants and binding affinity constants (KD).

Kd	Binder
181 nM	B1
92.1 nM	B2
61 nM	B3
240 nM	B4
351 nM	B5
21.7 nM	B6
44.4 nM	B7
47.3 nM	B8
36 nM	B9
107 nM	B10
34.2 nM	B11
27.2 nM	B12
63.8 nM	B13
32.1 nM	B14
73.8 nM	B15
40.4 nM	B16
56.9 nM	B17
77 nM	B18
65.8 nM	B19
53.1 nM	B20
40.6 nM	B21
104 nM	B22
47.7 nM	B23
42 nM	B24
46.2 nM	B25

The binders below were run against T2, human CD3e/g (human, UniProt P07766 23-126; P09693 23-116) (assay: SPR (Carterra LSA), mAb on chip).
T2 construct: Bought soluble protein; also called hCD3e/g; human CD3e/g (Acro CDD-C52W4)
T2 sequence (P07766 23-126, chain 1 of 2): as the sequence (P07766 23-126, chain 1 of 2) above
T2 sequence (P09693 23-116, chain 2 of 2): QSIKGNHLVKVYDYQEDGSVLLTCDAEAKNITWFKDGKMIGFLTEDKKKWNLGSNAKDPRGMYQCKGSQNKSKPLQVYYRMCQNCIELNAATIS
Procedure: as §1, §2, §3

Kd	Binder
950 nM	B1
85.7 nM	B26
9.83 nM	B27
18.6 nM	B28
113 nM	B29
16.2 nM	B30
26 nM	B2
13.1 nM	B3
0.69 nM	B31
98.4 nM	B4
171 nM	B5
6.07 nM	B6
12.1 nM	B7
12.5 nM	B8
13.8 nM	B9
28.8 nM	B10

Kd	Binder
13 nM	B11
6.64 nM	B12
15.7 nM	B13
7.45 nM	B14
12.6 nM	B15
10.6 nM	B16
14.8 nM	B17
15 nM	B18
18.9 nM	B19
12.2 nM	B20
9.84 nM	B21
24.1 nM	B22
7 nM	B23
8.63 nM	B24
7.07 nM	B25
